# Source: PMC3255974
# Assay: parallel wall flow chamber, 293T α4β7 transfectants
# Settings: glycan lost; control: wild type
protein,measurement,value
integrin β7 subunit: N260A (protein) parent chain: MVALPMVLVLLLVLSRGESELDAKIPSTGDATEWRNPHLSMLGSCQPAPSCQKCILSHPSCAWCKQLNFTASGEAEARRCARREELLARGCPLEELEEPRGQQEVLQDQPLSQGARGEGATQLAPQRVRVTLRPGEPQQLQVRFLRAEGYPVDLYYLMDLSYSMKDDLERVRQLGHALLVRLQEVTHSVRIGFGSFVDKTVLPFVSTVPSKLRHPCPTRLERCQSPFSFHHVLSLTGDAQAFEREVGRQSVSGNLDSPEGGFDAILQAALCQEQIGWRNVSRLLVFTSDDTFHTAGDGKLGGIFMPSDGHCHLDSNGLYSRSTEFDYPSVGQVAQALSAANIQPIFAVTSAALPVYQELSKLIPKSAVGELSEDSSNVVQLIMDAYNSLSSTVTLEHSSLPPGVHISYESQCEGPEKREGKAEDRGQCNHVRINQTVTFWVSLQATHCLPEPHLLRLRALGFSEELIVELHTLCDCNCSDTQPQAPHCSDGQGHLQCGVCSCAPGRLGRLCECSVAELSSPDLESGCRAPNGTGPLCSGKGHCQCGRCSCSGQSSGHLCECDDASCERHEGILCGGFGRCQCGVCHCHANRTGRACECSGDMDSCISPEGGLCSGHGRCKCNRCQCLDGYYGALCDQCPGCKTPCERHRDCAECGAFRTGPLATNCSTACAHTNVTLALAPILDDGWCKERTLDNQLFFFLVEDDARGTVVLRVRPQEKGADHTQAIVLGCVGGIVAVGLGLVLAYRLSVEIYDRREYSRFEKEQQQLNWKQDSNPLYKSAITTTINPRFQEADSPTL,other: rolling cell adhesion in shear flow,increases
